From PMC13042586, “ATP13A2 is involved in intracellular polyamine transport in lung epithelial cells” (FEBS Open Bio, 2025) come the findings set out here.

Substrate in this series: NCCCCNCCCN
Description: polyamine-dependent ATPase activity (Pi release, molybdate), Hill fit. Type of series: biochemical, Homo sapiens. As to conditions: microsomes of overexpressing H441 cells, 2 mM ATP, 5 mM MgCl2, 20 mM Tris-HCl pH 8.0, 10% glycerol, 1 mM DTT, 37 °C, 30 min, Hill coefficient n = 1, constant printed as Kd but from ATPase stimulation. An excerpt:
polyamine-dependent ATPase activity (Pi release, molybdate), Hill fit on ATP13A2 | Polyamine dependence of ATP13A2 was fitted to the Hill equation

B1: ATP13A2 (Homo sapiens) (protein)
chain: MSADSSPLVGSTPTGYGTLTIGTSIDPLSSSVSSVRLSGYCGSPWRVIGYHVVVWMMAGIPLLLFRWKPLWGVRLRLRPCNLAHAETLVIEIRDKEDSSWQLFTVQVQTEAIGEGSLEPSPQSQAEDGRSQAAVGAVPEGAWKDTAQLHKSEEAVSVGQKRVLRYYLFQGQRYIWIETQQAFYQVSLLDHGRSCDDVHRSRHGLSLQDQMVRKAIYGPNVISIPVKSYPQLLVDEALNPYYGFQAFSIALWLADHYYWYALCIFLISSISICLSLYKTRKQSQTLRDMVKLSMRVCVCRPGGEEEWVDSSELVPGDCLVLPQEGGLMPCDAALVAGECMVNESSLTGESIPVLKTALPEGLGPYCAETHRRHTLFCGTLILQARAYVGPHVLAVVTRTGFCTAKGGLVSSILHPRPINFKFYKHSMKFVAALSVLALLGTIYSIFILYRNRVPLNEIVIRALDLVTVVVPPALPAAMTVCTLYAQSRLRRQGIFCIHPLRINLGGKLQLVCFDKTGTLTEDGLDVMGVVPLKGQAFLPLVPEPRRLPVGPLLRALATCHALSRLQDTPVGDPMDLKMVESTGWVLEEEPAADSAFGTQVLAVMRPPLWEPQLQAMEEPPVPVSVLHRFPFSSALQRMSVVVAWPGATQPEAYVKGSPELVAGLCNPETVPTDFAQMLQSYTAAGYRVVALASKPLPTVPSLEAAQQLTRDTVEGDLSLLGLLVMRNLLKPQTTPVIQALRRTRIRAVMVTGDNLQTAVTVARGCGMVAPQEHLIIVHATHPERGQPASLEFLPMESPTAVNGVKDPDQAASYTVEPDPRSRHLALSGPTFGIIVKHFPKLLPKVLVQGTVFARMAPEQKTELVCELQKLQYCVGMCGDGANDCGALKAADVGISLSQAEASVVSPFTSSMASIECVPMVIREGRCSLDTSFSVFKYMALYSLTQFISVLILYTINTNLGDLQFLAIDLVITTTVAVLMSRTGPALVLGRVRPPGALLSVPVLSSLLLQMVLVTGVQLGGYFLTLAQPWFVPLNRTVAAPDNLPNYENTVVFSLSSFQYLILAAAVSKGAPFRRPLYTNVPFLVALALLSSVLVGLVLVPGLLQGPLALRNITDTGFKLLLLGLVTLNFVGAFMLESVLDQCLPACLRRLRPKRASKKRFKQLERELAEQPWPPLPAGPLR
notes: full-length with C-terminal TEV site, Halo tag and 6xHis (tags kept; ATP13A2-Halo, theoretical mass 165 K), adenovirus-mediated overexpression in NCI-H441 cells, microsome fraction
For B1, the K0.5 was found to be 1.00 mM.
